From patent publication US20260250320A1, “LIPIDATED PEPTIDE INHIBITORS OF INTERLEUKIN-23 RECEPTOR” (Janssen Pharmaceutica NV, priority 2023, published 2026)
*1 amine or outer side, *2 acyl side, *3 side chain or, on linkers, in order; H or OH if unused. Bridges are numbered along the chain shown (N, C = ends). Primed or numbered codes have the meaning given here. Where no end group is shown, it is not given here. Side-chain parts run from the residue outwards. [ ]: non-standard residue; d: D form. The star is where a group is joined. code d = side-chain group of K(d): lysine given as (2R)-2-(4-((5-amino-5-carboxypentyl)amino)-4-oxobutanamido)-3-carboxy-N,N,N-trimethylpropan-1-aminium, C[N+](C)(C)C[C@@H](CC(=O)O)NC(=O)CCC(=O)*; TMAPF = 5-(4-(2-amino-2-carboxyethyl)phenoxy)-N,N,N-trimethylpentan-1-aminium, C[N+](C)(C)CCCCCOc1ccc(C[C@H](N[*:1])C(=O)[*:2])cc1; code d″ = lysine side-chain amide of a carnitine-succinyl group ((2R)-3-carboxy-N,N,N-trimethylpropan-1-aminium amide; Biotin = O=C1N[C@H]2[C@H](CS[C@H]2CCCCC(=O)*)N1; PEG2′ = PEG2 spacer unit (not further defined); Trp(7-Me) = Cc1cccc2c(C[C@H](N)C(=O)O)c[nH]c12; γGlu = O=C(O)[C@H](CCC(=O)[*:2])N[*:1]; 2Nal = N[C@@H](Cc1ccc2ccccc2c1)C(=O)O; AEF = NCCOc1ccc(C[C@H](N)C(=O)O)cc1; 3Pal = N[C@@H](Cc1cccnc1)C(=O)O; NMeK = CN[C@@H](CCCCN)C(=O)O; NMecPEG3a = not defined here; Pen = CC(C)(S)[C@H](N)C(=O)O; PEG2″ = PEG2 spacer unit; PEG4′ = not defined here; Thp = NC1(C(=O)O)CCOCC1; Sar = CNCC(=O)O

T1: interleukin-23 receptor (IL-23R) (UniProt Q5VWK5 24-629, limits assumed)
T1 sequence (looked up): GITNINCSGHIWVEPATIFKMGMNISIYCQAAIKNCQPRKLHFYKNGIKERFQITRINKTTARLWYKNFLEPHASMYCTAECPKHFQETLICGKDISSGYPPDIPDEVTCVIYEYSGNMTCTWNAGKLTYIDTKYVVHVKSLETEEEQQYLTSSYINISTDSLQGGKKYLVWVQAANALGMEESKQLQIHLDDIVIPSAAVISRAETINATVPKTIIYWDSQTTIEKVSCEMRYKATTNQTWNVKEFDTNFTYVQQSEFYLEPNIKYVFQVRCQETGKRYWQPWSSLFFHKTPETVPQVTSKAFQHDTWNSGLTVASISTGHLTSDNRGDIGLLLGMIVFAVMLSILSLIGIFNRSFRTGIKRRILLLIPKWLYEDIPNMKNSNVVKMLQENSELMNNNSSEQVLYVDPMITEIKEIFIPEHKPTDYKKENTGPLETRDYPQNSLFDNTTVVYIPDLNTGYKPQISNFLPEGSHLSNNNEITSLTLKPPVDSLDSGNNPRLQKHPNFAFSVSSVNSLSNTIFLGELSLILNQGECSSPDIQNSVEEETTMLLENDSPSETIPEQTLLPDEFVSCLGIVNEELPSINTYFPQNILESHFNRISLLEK

B1: SEQ ID NO: 47 (peptide)
peptide: [dR][Pen]K(code d)T[Trp(7-Me)]K(Ac)[Pen][AEF][2Nal][Thp]EN[3Pal][Sar]-NH2
modifications: disulfide 2-7 (inferred); not fully specified (N-terminus); printed as HOC18gEPEG2PEG2CO-r-Pen(3)-K(d)-T-7MeW-K(Ac)-Pen(3)-AEF-2Nal-THP-E-N-3Pya-Sar-CONH2
B2: SEQ ID NO: 70 (peptide)
peptide: Ac-[dR][Pen]NT[Trp(7-Me)]K(NMecPEG3a)[Pen][AEF][2Nal][Thp]EN[3Pal][Sar]K([PEG2″-PEG2″-C18OH])-NH2
modifications: disulfide 2-7 (inferred); reading uncertain; also: printed as MeCO-r-Pen(3)-N-T-7MeW-K(NMecPEG3a)-Pen(3)-AEF-2Nal-THP-E-N-3Pya-Sar-K(PEG2PEG2C18OH)-CONH2
B3: SEQ ID NO: 37 (peptide)
peptide: Ac-[dR][Pen]XT[Trp(7-Me)]K(Ac)[Pen][AEF][2Nal][Thp]K([PEG2′-PEG2′-γGlu-C18OH])N[3Pal][Sar]-NH2
modifications: disulfide 2-7 (inferred); not fully specified (residue 3); printed as MeCO-r-Pen(3)-K(d)-T-7MeW-K(Ac)-Pen(3)-AEF-2Nal-THP-K(PEG2PEG2gEC18OH)-N-3Pya-Sar-CONH2
B4: SEQ ID NO: 46 (peptide)
peptide: [dR][Pen]NT[Trp(7-Me)]K(code d)[Pen][AEF][2Nal][Thp]EN[3Pal][Sar]-NH2
modifications: disulfide 2-7 (inferred); not fully specified (N-terminus); printed as HOC18gEPEG2PEG2CO-r-Pen(3)-N-T-7MeW-K(d)-Pen(3)-AEF-2Nal-THP-E-N-3Pya-Sar-CONH2
B5: SEQ ID NO: 43 (peptide)
peptide: [dR][Pen]NT[Trp(7-Me)]K(Ac)[Pen][AEF][2Nal][Thp]EN[3Pal][NMeK](code d)-NH2
modifications: disulfide 2-7 (inferred); not fully specified (N-terminus); printed as HOC18gEPEG2PEG2CO-r-Pen(3)-N-T-7MeW-K(Ac)-Pen(3)-AEF-2Nal-THP-E-N-3Pya-NMeK(d)-CONH2

Each molecule was assayed against interleukin-23 receptor (IL-23R) (UniProt Q5VWK5) (assay: cell-based or functional assay).

| Molecule | EC90, IL23R reporter assay |
| --- | --- |
| interleukin-23 (IL-23) (from UniProt Q9NPF7 20-189; P29460 23-328) (ligand) | 10 ng/mL |

What follows are molecules tested against T1, interleukin-23 receptor (IL-23R) (assay: cell-based or functional assay).

| Molecule | PBMC pSTAT3 IC50 |
| --- | --- |
| Ac-[dR][Pen]NT[Trp(7-Me)]Q[Pen][AEF][2Nal][Thp]EN[3Pal][Sar]K([PEG2′-PEG2′-γGlu-C18OH])-NH2 (disulfide 2-7 (inferred)) [SEQ ID NO: 38] | < 0.5 nM |
| Ac-K([PEG2″-PEG2″-γGlu-C18OH])[Pen]NT[Trp(7-Me)]K(Ac)[Pen][TMAPF][2Nal][Thp]K(Ac)N[3Pal][Sar]-NH2 (disulfide 2-7 (inferred)) [SEQ ID NO: 62] | < 0.5 nM |
| B1 | < 0.5 nM |
| {HOC18-γGlu-PEG2″-PEG2″}-[dR][Pen]NT[Trp(7-Me)]K(Ac)[Pen][AEF][2Nal][Thp]EN[3Pal][Sar]-NH2 (disulfide 2-7) [SEQ ID NO: 60] | < 0.5 nM |
| B2 | < 0.5 nM |
| B3 | < 0.5 nM |
| Ac-K([PEG2′-PEG2′-γGlu-C18OH])[Pen]NT[Trp(7-Me)]K(Ac)[Pen][AEF][2Nal][Thp]K(Ac)N[3Pal][Sar]-NH2 (disulfide 2-7 (inferred)) [SEQ ID NO: 39] | < 0.5 nM |
| {Biotin-PEG4′}-[dR][Pen]NT[Trp(7-Me)]K(Ac)[Pen][AEF][2Nal][Thp]EN[3Pal][Sar]K([PEG2″-PEG2″-γGlu-C18OH])-NH2 (disulfide 2-7) [SEQ ID NO: 57] | < 0.5 nM |
| Ac-[dK]([PEG2′-PEG2′-γGlu-C18OH])[Pen]NT[Trp(7-Me)]K(Ac)[Pen][AEF][2Nal][Thp]EN[3Pal][NMeK](code d)-NH2 (disulfide 2-7 (inferred)) [SEQ ID NO: 42] | < 0.5 nM |
| XNTXXXXXXENXX (HOC18gEPEG2PEG2CO-Pen(3)-N-T-7MeW-K(Ac)-Pen(3)-AEF-2Nal-THP-E-N-3Pya-Sar-CONH2) [SEQ ID NO: 61] | < 0.5 nM |
| Ac-[dR][Pen]NT[Trp(7-Me)]K(Ac)[Pen][AEF][2Nal][Thp]K(code d″)N[3Pal][Sar]K([PEG2″-PEG2″-γGlu-C18OH])-NH2 (disulfide 2-7 (inferred)) [SEQ ID NO: 51] | < 0.5 nM |
| B4 | < 0.5 nM |
| Ac-[dR][Pen]NT[Trp(7-Me)]K(Ac)[Pen][AEF][2Nal][Thp]K([PEG4′-Biotin])N[3Pal][Sar]K([PEG2″-PEG2″-γGlu-C18OH])-NH2 (disulfide 2-7) [SEQ ID NO: 56] | < 0.5 nM |
| B5 | < 0.5 nM |

Biological target: T1, interleukin-23 receptor (IL-23R)
Assay: cell-based or functional assay
Remark: another data set of the same source

| Molecule | IC50, IL23R reporter assay |
| --- | --- |
| Ac-[dR][Pen]NT[Trp(7-Me)]Q[Pen][AEF][2Nal][Thp]EN[3Pal][Sar]K([PEG2′-PEG2′-γGlu-C18OH])-NH2 (disulfide 2-7 (inferred)) [SEQ ID NO: 38] | < 0.05 µM |
| Ac-K([PEG2″-PEG2″-γGlu-C18OH])[Pen]NT[Trp(7-Me)]K(Ac)[Pen][TMAPF][2Nal][Thp]K(Ac)N[3Pal][Sar]-NH2 (disulfide 2-7 (inferred)) [SEQ ID NO: 62] | < 0.05 µM |
| B1 | < 0.05 µM |
| {HOC18-γGlu-PEG2″-PEG2″}-[dR][Pen]NT[Trp(7-Me)]K(Ac)[Pen][AEF][2Nal][Thp]EN[3Pal][Sar]-NH2 (disulfide 2-7) [SEQ ID NO: 60] | < 0.05 µM |
| B2 | < 0.05 µM |
| B3 | < 0.05 µM |
| Ac-K([PEG2′-PEG2′-γGlu-C18OH])[Pen]NT[Trp(7-Me)]K(Ac)[Pen][AEF][2Nal][Thp]K(Ac)N[3Pal][Sar]-NH2 (disulfide 2-7 (inferred)) [SEQ ID NO: 39] | < 0.05 µM |
| {Biotin-PEG4′}-[dR][Pen]NT[Trp(7-Me)]K(Ac)[Pen][AEF][2Nal][Thp]EN[3Pal][Sar]K([PEG2″-PEG2″-γGlu-C18OH])-NH2 (disulfide 2-7) [SEQ ID NO: 57] | < 0.05 µM |
| Ac-[dK]([PEG2′-PEG2′-γGlu-C18OH])[Pen]NT[Trp(7-Me)]K(Ac)[Pen][AEF][2Nal][Thp]EN[3Pal][NMeK](code d)-NH2 (disulfide 2-7 (inferred)) [SEQ ID NO: 42] | < 0.05 µM |
| XNTXXXXXXENXX (HOC18gEPEG2PEG2CO-Pen(3)-N-T-7MeW-K(Ac)-Pen(3)-AEF-2Nal-THP-E-N-3Pya-Sar-CONH2) [SEQ ID NO: 61] | < 0.05 µM |
| Ac-[dR][Pen]NT[Trp(7-Me)]K(Ac)[Pen][AEF][2Nal][Thp]K(code d″)N[3Pal][Sar]K([PEG2″-PEG2″-γGlu-C18OH])-NH2 (disulfide 2-7 (inferred)) [SEQ ID NO: 51] | ≥ 0.5 µM |
| B4 | < 0.05 µM |
| Ac-[dR][Pen]NT[Trp(7-Me)]K(Ac)[Pen][AEF][2Nal][Thp]K([PEG4′-Biotin])N[3Pal][Sar]K([PEG2″-PEG2″-γGlu-C18OH])-NH2 (disulfide 2-7) [SEQ ID NO: 56] | < 0.05 µM |
| B5 | < 0.05 µM |
